Data as given in patent publication US10227575B2, “Multi-domain enzymes having cutinase activity, compositions comprising same and uses thereof” (OZYMES, priority 2015, dated 2019).
“And” between values parts separate entries of the source, which are not always exact repeats. Identical values can stand only once. Marks after values point to notes of the source that are not given here.

How the values were obtained:
[1] = Temperature optimum; assay type: biochemical; details: for Relative activity at temperature: highest activity set to 100%
Experimental: For estimation of the temperature optimum, buffer containing pNP-palmitate (see esterase assay in Example 20.1) was pre-incubated to reach the desired temperature, enzyme was then added, and the formation of pNP was assayed. For this experiment, Tris/HCl buffer was replaced with sodium phosphate buffer (50 mM, pH 8.0) to avoid a pH shift at the different temperatures.

[2] = Stability in the presence of hydrogen peroxide; assay type: physicochemical
Outline: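 Purified cutinases held at room temperature with 0, 30, 100, 300, 1500 or 3000 ppm H2O2; residual esterase activity assayed after 1, 2, 3 and 7 days. Activity read as pNP release at 410 nm from pNP-esters (0.8 mM final) in 50 mM Tris/HCl pH 8.0; U = 1 μmol pNP/min, ε 15 mM^−1 cm^−1.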

[3] = Enzyme substrate profiles, esterase assays; assay type: biochemical; details: highest activity towards a specific substrate set to 100%
Outline: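 Hydrolysis of pNP-ester substrates, final 0.8 mM (from 8 mM 2-propanol stock), in 50 mM Tris/HCl pH 8.0, followed as pNP release at 410 nm (ε 15 mM^−1 cm^−1). One U = 1 μmol pNP/min; specific activity as U/mg protein.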

[4] = Circular dichroism spectroscopy, melting temperature and refolding; assay type: physicochemical
Outline: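 Purified protein at 0.15 mg/mL where possible; far-UV CD spectra recorded 190–250 nm against a buffer blank. Unfolding followed at 222 nm from 20 to 90° C. at 2° C. min-1, held 5 min at maximum, then refolding tracked on the reverse ramp; Tm, ΔH, ΔS, ΔG calculated where applicable.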

[5] = Specific activity of purified enzymes (standard esterase assay); assay type: biochemical
Outline: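 Purified enzymes tested on pNP-esters, including pNP-palmitate, at 0.8 mM final in 50 mM Tris/HCl pH 8.0 (substrate predissolved in 2-propanol). p-Nitrophenol release followed at 410 nm (ε 15 mM^−1 cm^−1); 1 U = 1 μmol pNP/min, specific activity given as U/mg protein.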

[6] = pH dependence of enzymes; assay type: biochemical; details: for Relative activity (%): highest activity = 100%
Experimental: The influence of different pH values (from 5.5 to 11) on the activities of the purified enzymes was examined in three buffer systems (sodium acetate, sodium phosphate, and Tris-HCl) at room temperature using pNP-palmitate (see esterase assay in Example 20.1) as a substrate at a final substrate concentration of 0.8 mM.

[7] = Enzymatic activity in the presence of organic solvents; assay type: biochemical; details: buffer only = 100%
Experimental: Enzyme activity in various organic solvents was studied over a concentration range of 1-30% at room temperature. pNP-palmitate was completely dissolved in 2-propanol (8 mM) and then added to 50 mM Tris/HCl buffer pH 8.0 containing up to 30% organic solvent to give a final substrate concentration of 0.8 mM. The reaction was started by addition of enzyme and the formation of pNP was assayed as described above in Example 20.1.

[8] = Activity of crude culture supernatants from bioreactor; assay type: biochemical; details: pNP-dodecanoate

B1: Cf-TP: chimeric variant: catalytic and polymer binding domains of CfCUT with T/P-rich linker domain of KrCUT, SEQ ID NO: 29 (protein)
chain: APACPDVELVFARGTGEAAGLGIVGRPLERALAAELPGRTVVATAVDYAASSSQASAGPGSGDMVAKVRSRAAACPGTQFVLGGYSQGATVTDLALGIRTGVTAGTALPEDLAARVAAVVVYGNPLGLTRRTIAQAAPAFATRTVEYCNAGDPVCEPGGGRFTAHITYATNGTVLEGARFAAARVTAAGTPTTPTPTPTPTPVPTTCVTASSLQHVRDGRAYPLWMRTYARGSGDPLGVLSSRTVVSLQADGTDTWRKVAAC
modifications: YebF carrier; Cf-TP variant
- Temp. opt. (° C.) [1]: 35 °C
- Relative activity at temperature ([1]; 20 ° C.): 54 ± 5%
- Relative activity at temperature ([1]; 25 ° C.): 84 ± 9%
- Relative activity at temperature ([1]; 30 ° C.): 95 ± 5%
- Relative activity at temperature ([1]; 35 ° C.): 100* %
- Relative activity at temperature ([1]; 40 ° C.): 89 ± 6%
- Relative activity at temperature ([1]; 45 ° C.): 72 ± 7%
- Relative activity at temperature ([1]; 50 ° C.): 37 ± 6%
- Relative activity at temperature ([1]; 55 ° C.): 9 ± 1%
- Relative activity (%) after exposure to hydrogen peroxide ([2]; H2O2 30 ppm, Day 0): 97 ± 1%
- Relative activity (%) after exposure to hydrogen peroxide ([2]; H2O2 30 ppm, Day 1): 89 ± 4%
- Relative activity (%) after exposure to hydrogen peroxide ([2]; H2O2 30 ppm, Day 2): 78 ± 3%
- Relative activity (%) after exposure to hydrogen peroxide ([2]; H2O2 30 ppm, Day 3): 86 ± 2%
- Relative activity (%) after exposure to hydrogen peroxide ([2]; H2O2 30 ppm, Day 7): 65 ± 7%
- Relative activity (%) after exposure to hydrogen peroxide ([2]; H2O2 100 ppm, Day 0): 98 ± 6%
- Relative activity (%) after exposure to hydrogen peroxide ([2]; H2O2 100 ppm, Day 1): 91 ± 3%
- Relative activity (%) after exposure to hydrogen peroxide ([2]; H2O2 100 ppm, Day 2): 89 ± 7%
- Relative activity (%) after exposure to hydrogen peroxide ([2]; H2O2 100 ppm, Day 3): 94 ± 7%
- Relative activity (%) after exposure to hydrogen peroxide ([2]; H2O2 100 ppm, Day 7): 74 ± 6%
- Relative activity (%) after exposure to hydrogen peroxide ([2]; H2O2 300 ppm, Day 0): 95 ± 6%
- Relative activity (%) after exposure to hydrogen peroxide ([2]; H2O2 300 ppm, Day 1): 88 ± 3%
- Relative activity (%) after exposure to hydrogen peroxide ([2]; H2O2 300 ppm, Day 2): 85 ± 12%
- Relative activity (%) after exposure to hydrogen peroxide ([2]; H2O2 300 ppm, Day 3): 98 ± 3%
- Relative activity (%) after exposure to hydrogen peroxide ([2]; H2O2 300 ppm, Day 7): 77 ± 5%
- Relative activity (%) after exposure to hydrogen peroxide ([2]; H2O2 1,500 ppm, Day 0): 95 ± 9%
- Relative activity (%) after exposure to hydrogen peroxide ([2]; H2O2 1,500 ppm, Day 1): 89 ± 3%
- Relative activity (%) after exposure to hydrogen peroxide ([2]; H2O2 1,500 ppm, Day 2): 88 ± 6%
- Relative activity (%) after exposure to hydrogen peroxide ([2]; H2O2 1,500 ppm, Day 3): 87 ± 4%
- Relative activity (%) after exposure to hydrogen peroxide ([2]; H2O2 1,500 ppm, Day 7): 68 ± 7%
- Relative activity (%) after exposure to hydrogen peroxide ([2]; H2O2 3,000 ppm, Day 0): 80% and 80 ± 2%
- Relative activity (%) after exposure to hydrogen peroxide ([2]; H2O2 3,000 ppm, Day 1): 74 ± 5%
- Relative activity (%) after exposure to hydrogen peroxide ([2]; H2O2 3,000 ppm, Day 2): 77 ± 2%
- Relative activity (%) after exposure to hydrogen peroxide ([2]; H2O2 3,000 ppm, Day 3): 78 ± 5%
- Relative activity (%) after exposure to hydrogen peroxide ([2]; H2O2 3,000 ppm, Day 7): 57% and 57 ± 5%
- Relative activity, pNP-acetate (C2) [3]: 5%
- Relative activity, pNP-butyrate (C4) [3]: 80 ± 3%
- Relative activity, pNP-caprylate (C8) [3]: 33 ± 1%
- Relative activity, pNP-decanoate (C10) [3]: 66 ± 8%
- Relative activity, pNP-myristate (C14) [3]: 40 ± 4%
- Relative activity, pNP-palmitate (C16) [3]: 100* %
- refolding ([4]; CD at 222 nm): some refolding
- melting temperature (Tm) ([4]; CD at 222 nm, unfolding): 56.6 °C
- Tm (° C.) ([4]; estimated using CD-spectroscopy): 57 ± 1 °C
- Enzymatic activity of the purified variant ([5]; pNP-palmitate): 30 ± 2 U/mg
- Spec. Act. (U/mg) ([5]; towards pNP-palmitate (standard assay)): 30 ± 2 U/mg
- pH opt. [6]: 9.5
- Relative activity (%) ([6]; pH 6.5, sodium phosphate buffer): 12 ± 1%
- Relative activity (%) ([6]; pH 7.0, sodium phosphate buffer): 22 ± 1%
- Relative activity (%) ([6]; pH 7.5, sodium phosphate buffer): 36 ± 1%
- Relative activity (%) ([6]; pH 8.0, Tris/HCl): 65 ± 7%
- Relative activity (%) ([6]; pH 8.5, Tris/HCl): 88 ± 8%
- Relative activity (%) ([6]; pH 9.0, Tris/HCl): 95 ± 3%
- Relative activity (%) ([6]; pH 9.5, Tris/HCl): 100* %
- Relative activity (%) ([6]; pH 10, Tris/HCl): 35 ± 4%
- Relative enzymatic activity (%) ([7]; 2-Propanol 5% (v/v)): 93 ± 1%
- Relative enzymatic activity (%) ([7]; 2-Propanol 10% (v/v)): 92 ± 2%
- Relative enzymatic activity (%) ([7]; Acetone 1% (v/v)): 103 ± 12%
- Relative enzymatic activity (%) ([7]; Acetone 5% (v/v)): 112 ± 10%
- Relative enzymatic activity (%) ([7]; Acetone 10% (v/v)): 109 ± 6%
- Relative enzymatic activity (%) ([7]; Dimethyl sulfoxide (DMSO) 10% (v/v)): 150 ± 14%
- Relative enzymatic activity (%) ([7]; Dimethyl sulfoxide (DMSO) 20% (v/v)): 146 ± 23%
- Relative enzymatic activity (%) ([7]; Dimethyl sulfoxide (DMSO) 30% (v/v)): 129 ± 18%
- Relative enzymatic activity (%) ([7]; Dimethylformamide (DMF) 5% (v/v)): 134 ± 10%
- Relative enzymatic activity (%) ([7]; Methanol 10% (v/v)): 121 ± 14%
- Relative enzymatic activity (%) ([7]; Methanol 20% (v/v)): 94 ± 1%
- activity of crude culture supernatant [8]: 0.6 U/mL
